Results: CN109810195A (INST OF HEMATOLOGY BLOOD DISEASES HOSPITAL OF CHINESE …, dated 2019)

Target: T1, 人CD123蛋白 (白细胞介素3受体α链, IL3RA) (human, UniProt P26951 19-378)
T1 construct: whole, on cells
Assay: FACS, PE-labelled 13C3 titrated (200nM to 0.003nM) on 3T3 cells transfected with CD123; Kd fitted in GraphPad Prism 5

T1 sequence (P26951 19-378): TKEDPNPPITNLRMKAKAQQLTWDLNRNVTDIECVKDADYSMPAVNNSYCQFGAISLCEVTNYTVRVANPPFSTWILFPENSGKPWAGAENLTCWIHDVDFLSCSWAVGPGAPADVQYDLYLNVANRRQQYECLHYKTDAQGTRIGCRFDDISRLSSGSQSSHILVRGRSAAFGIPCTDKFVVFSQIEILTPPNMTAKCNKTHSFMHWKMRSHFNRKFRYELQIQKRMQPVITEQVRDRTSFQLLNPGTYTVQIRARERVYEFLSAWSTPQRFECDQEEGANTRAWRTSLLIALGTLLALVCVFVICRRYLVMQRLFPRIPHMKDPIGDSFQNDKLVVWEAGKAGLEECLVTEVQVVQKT

Kd: 3.67 nM
B1: 鼠抗人CD123单克隆抗体13C3 (antibody, V domains shown)
VH: QVQLQESGPGILQPSQTLTLTCSFSGFSLSTSGMGVGWIRQPSGKGLEWLAHIWWDDDKRYKPALKSRLTISKDTSSNQVFLKIASVDTADAATYYCARMGGGNYLFLYAMDFWGQGTSVTVSA
VL: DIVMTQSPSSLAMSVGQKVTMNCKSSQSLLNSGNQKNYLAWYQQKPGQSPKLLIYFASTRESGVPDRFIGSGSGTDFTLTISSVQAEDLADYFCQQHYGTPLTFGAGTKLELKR
notes: PE-labelled purified antibody in the Kd assay and on patient samples; also called 抗CD123单克隆抗体13C3; 杂交瘤细胞株13C3 (CGMCC No.16699) 产生的抗体
